In assay [1] the target is T1, SARS-CoV-2 Spike RBD, Wuhan (SARS-CoV-2, UniProt P0DTC2 319-541).
In assay [2] the target is T1, SARS-CoV-2 Spike RBD, Wuhan. The source holds these as a separate data set.

Drawing on patent US20260139001A1 (Harvard, published 2026), this text covers EC50 and Kd for four molecules.

B1: LCB3-NS (LCB3 H19aNBDC) (designed binder)
chain: MNDDELHMLMTDLVYEALCFAKDEEIKKRVFQLFELADKAYKNNDRQKLEKVVEELKELLERLLS
In assay [1], B1 returned an EC50 of 6400 nM.

B2: VHH72 wt (VHH)
VHH: QVQLQESGGGLVQAGGSLRLSCAASGRTFSEYAMGWFRQAPGKEREFVATISWSGGSTYYTDSVKGRFTISRDNAKNTVYLQMNSLKPDDTAVYYCAAAGLGTVVSEWDYDYDYWGQGTQVTVSS
In turn, B2 registered a Kd in assay [2] of 45 nM.

B3: VHH72 NoK wt (VHH)
VHH: QVQLQESGGGLVQAGGSLRLSCAASGRTFSEYAMGWFRQAPGREREFVATISWSGGSTYYTDSVRGRFTISRDNARNTVYLQMNSLRPDDTAVYYCAAAGLGTVVSEWDYDYDYWGQGTQVTVSS
On to B3, for which the Kd in assay [2] came to 75 nM.

B4: VHH72 G56MDCcC (VHH)
VHH: QVQLQESGGGLVQAGGSLRLSCAASGRTFSEYAMGWFRQAPGKEREFVATISWSGCSTYYTDSVKGRFTISRDNAKNTVYLQMNSLKPDDTAVYYCAAAGLGTVVSEWDYDYDYWGQGTQVTVSS
Take B4: in assay [1], the EC50 worked out at 1100 nM.

What is called EC50 is the concentration needed to bring the measured effect to its halfway point. Usually Kd stands for the free concentration of one partner at which half of the binding sites on the other are occupied at equilibrium, for simple one-to-one binding. A lower Kd goes with higher affinity.
